The text below walks through data of patent US20130078216A1 (published 2013).

The target in experiment [1] is T1, (His)6-Mouse ASGPR H1 (mouse, UniProt P34927 61-284).
T1 construct: Expressed in HEK293E, Ni-NTA purified; coated on a CM5 chip or biotinylated and captured on a streptavidin chip; The entry includes the His tag; also called mouse (His)6-ASGPR H1; mouse (His)6-ASGPR H1 extracellular domain
T1 sequence: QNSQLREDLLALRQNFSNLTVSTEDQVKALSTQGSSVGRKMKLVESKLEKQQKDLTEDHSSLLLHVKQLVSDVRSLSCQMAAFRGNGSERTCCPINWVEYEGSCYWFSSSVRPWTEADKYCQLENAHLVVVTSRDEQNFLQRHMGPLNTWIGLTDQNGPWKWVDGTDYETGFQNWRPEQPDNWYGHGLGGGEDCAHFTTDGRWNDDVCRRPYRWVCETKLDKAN
Nature of the experiment: BIAcore epitope mapping, 1 µM dAb over (His)6 mouse ASGPR H1 on a CM5 chip. As to the method: After coating a BlAcore CM5 chip with (His)₆ mouse ASGPR H1, protein A or protein L purified dAb proteins were injected one after the other and in combination over the same antigen surface. The resulting binding RUs were determined in order to see whether the maximal binding capacity of the chip by one dAb molecule can be exceeded by simultaneously injecting a second dAb onto the same antigen surface. If so, the second dAb clearly binds a different epitope compared to the first one. 1 μM concentrations of each dAb were injected at a flow rate of […], both in single injection and co-injection experiments. If injection of the second dAb in the presence of the first dAb reduced the observed binding to the chip surface by greater than 20% (in comparison to observed binding of the second dAb to the chip surface in the absence of the first dAb) both dAbs were assumed to bind overlapping epitopes within the antigen (FIG. 6). Based on results obtained in these experiments murine ASGPR specific dAb clones could be grouped according to epitopes bound within the antigen as shown in FIG. 12.
(Surface plasmon resonance follows binding to a sensor surface in real time, without labels.)

In experiment [2] the target is T2, (His)6-Human ASGPR H1 Stalk Domain (human, UniProt P07306 62-153).
T2 construct: Biotinylated and immobilised on a streptavidin chip; also called human (His)6-ASGPR H1 stalk domain; (His)6-human ASGPR H1 stalk domain residues glutamine 62-cysteine 153
T2 sequence: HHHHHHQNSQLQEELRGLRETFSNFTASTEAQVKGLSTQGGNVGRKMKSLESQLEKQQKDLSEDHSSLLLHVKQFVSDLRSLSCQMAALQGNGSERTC
Nature of the experiment: BIAcore, biotinylated stalk domain on a streptavidin chip, flow 40 µl/min. An excerpt: (§1) To assay for potential dAb binding activity human (His)₆-ASGPR H1 stalk domain, human (His)₆-ASGPR H1 lectin domain and mouse (His)₆-ASGPR H1 extracellular domain were biotinylated and immobilised on a biacore Streptavidin chip surface.

Experiment [3] deals with T3, (His)6-Human ASGPR H1 Lectin Domain (human, UniProt P07306 154-291).
T3 construct: Biotinylated and immobilised on a streptavidin chip; also called human (His)6-ASGPR H1 lectin domain; human (His)6 lectin domain
T3 sequence: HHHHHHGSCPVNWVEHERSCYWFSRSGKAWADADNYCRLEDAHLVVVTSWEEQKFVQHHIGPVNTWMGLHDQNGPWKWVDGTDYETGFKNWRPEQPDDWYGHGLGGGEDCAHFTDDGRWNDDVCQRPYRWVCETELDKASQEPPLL
Nature of the experiment: BIAcore, biotinylated antigen on a streptavidin chip, FLAG-tagged dAb, 40 µl/min.
Source text: as §1

Experiment [4] addresses T1, (His)6-Mouse ASGPR H1. The experiment is described as above.
Source text: as §1

Experiment [5] deals with T4, mouse ASGPR on the murine liver cell line Hepa1c1c7 (and on mouse liver in vivo) (mouse, UniProt P34927 1-284).
T4 sequence (looked up): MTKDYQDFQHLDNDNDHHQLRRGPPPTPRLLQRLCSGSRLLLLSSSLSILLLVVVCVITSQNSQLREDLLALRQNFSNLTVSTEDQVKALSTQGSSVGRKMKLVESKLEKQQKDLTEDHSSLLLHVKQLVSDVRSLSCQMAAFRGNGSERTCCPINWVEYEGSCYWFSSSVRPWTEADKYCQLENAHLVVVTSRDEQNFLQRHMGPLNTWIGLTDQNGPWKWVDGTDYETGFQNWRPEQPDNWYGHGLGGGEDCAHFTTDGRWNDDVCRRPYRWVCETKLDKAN
Briefly: cell-based or functional assay.

For experiment [6], the target named is T1, (His)6-Mouse ASGPR H1. Briefly: BIAcore, antigen coated on a CM5 chip, dAb at 2.5 µM. The procedure: (§2) FIG. 3: Vκ and VH dAbs selected against recombinant human and mouse ASGPR proteins binding specifically to the target antigen. Antigens were coated on the surface of a CM5 BlAcore chip and protein L purified Vκ dAb DOM26m-20 (top panel) or protein A purified VH dAb DOM26h-61 (bottom panel) was passed over the chip surface at a concentration of 2.5 μM using a flow-rate of […]. In the top panel binding of dAb to (His)₆-mouse ASGPR H1 ( )or human c-kit (His)₆ negative control antigen ( ) is shown. In the bottom panel dAb binding to (His)₆-human ASGPR H1 ( )or human c-kit (His)₆ negative control antigen ( ) is shown.
(§3) Screening by BlAcore took place using dAb supernatant expressed as above diluted 1:2 with HBS-P BlAcore running buffer. Each dAb was then injected over a blank flow cell and a flow cell coated with human or mouse (His)₆-ASGPR H1 on a CM5 chip. […] All unique dAb clones were expressed in 50 ml cultures (OnEX plus carbenicillin) overnight at 37° C. and purified on protein A (VH dAbs) or protein L (Vκ dAbs). Purified dAbs were passed over a CM5 BIAcore chip coated with either human or mouse (His)₆-ASGPR H1 at 20μg/ml (FIG. 3). Those dAbs that bound specifically to (His)₆-ASGPR H1 were then analysed in the flow cytometry cell binding assay (FIG. 4).

For experiment [7], the target named is T5, human c-kit (His)6 negative control antigen (human, UniProt P10721 26-524, limits assumed).
T5 construct: Control antigen
T5 sequence (P10721 26-524 limits assumed): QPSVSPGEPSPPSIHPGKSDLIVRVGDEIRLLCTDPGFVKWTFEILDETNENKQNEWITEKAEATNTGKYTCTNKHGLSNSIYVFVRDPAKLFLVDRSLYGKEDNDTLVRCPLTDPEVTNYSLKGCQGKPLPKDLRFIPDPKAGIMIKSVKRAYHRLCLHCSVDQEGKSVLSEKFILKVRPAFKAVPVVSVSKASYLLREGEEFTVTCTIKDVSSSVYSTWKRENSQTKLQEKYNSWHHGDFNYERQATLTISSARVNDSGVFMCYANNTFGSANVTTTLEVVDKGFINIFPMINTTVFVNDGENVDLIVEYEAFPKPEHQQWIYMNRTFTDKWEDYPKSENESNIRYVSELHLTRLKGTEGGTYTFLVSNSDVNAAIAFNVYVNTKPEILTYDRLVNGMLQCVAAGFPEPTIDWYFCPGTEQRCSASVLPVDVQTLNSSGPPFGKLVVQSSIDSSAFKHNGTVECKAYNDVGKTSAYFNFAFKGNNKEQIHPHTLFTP
Nature of the experiment: BIAcore, antigens coated on a CM5 chip, human c-kit (His)6 as negative control antigen. As to the method:
as §2, §3

Experiment [8] deals with T6, (His)6-Human ASGPR H1 (human, UniProt P07306 62-291).
T6 construct: Expressed in HEK293E, Ni-NTA purified; coated on a CM5 chip or biotinylated and captured on a streptavidin chip; The entry includes the His tag; also called human (His)6-ASGPR H1; Human (His)6 ASGPR H1 Q62-L291
T6 sequence: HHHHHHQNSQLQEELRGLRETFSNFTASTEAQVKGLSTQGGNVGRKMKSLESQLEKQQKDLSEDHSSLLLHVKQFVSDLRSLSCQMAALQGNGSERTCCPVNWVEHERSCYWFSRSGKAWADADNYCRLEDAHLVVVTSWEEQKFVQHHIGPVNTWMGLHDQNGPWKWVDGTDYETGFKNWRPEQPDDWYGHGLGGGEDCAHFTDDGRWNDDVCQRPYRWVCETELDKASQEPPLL
Nature of the experiment: BIAcore, antigen coated on a CM5 chip, dAb at 2.5 µM. As to the method:
as §2, §3

Experiment [9] concerns the target T6, (His)6-Human ASGPR H1. Nature of the experiment: BIAcore, biotinylated (His)6-ASGPR H1 on a streptavidin chip, 62 nM dAb, 40 µl/min. The procedure: ( )to human (His)₆-ASGPR H1. Biotinylated (His)₆-ASGPR H1 was immobilised on a Biacore streptavidin chip surface and 62 nM dAb passed over at a flow rate of 40 μl.min⁻¹.
For experiment [10], the target named is T3, (His)6-Human ASGPR H1 Lectin Domain. Nature of the experiment: BIAcore, biotinylated antigen on a streptavidin chip, 60 nM dAb, 40 µl/min.

Positions count from the first letter of the chain named. In names and notes the source's numbering stands.

B1: DOM26m-54 (other, not shown: small tags and cut ends)
VL: DIQMTQSPSSLSASVGDRVTITCRASLNIDTDLVWYQQKPGKAPKLLIAGWSGLQSGVPSRFSGSGSGTDFTLTISSLQPEDFATYYCGQFAREPFTFGQGTKVEIKR
notes: human Vκ domain antibody (dAb) selected on mouse ASGPR H1
For the molecule B1, the binding result in experiment [1] is given as “binds”.

B2: DOM26h-210-2 (other, not shown: small tags and cut ends)
VH: ELQLLEFGGGLVQPGGSLRLSCTTSGFTFSRYTMGWVRQAPGKGLEWVSAIGPPGSNTYYADSVKGRFTISRDNSKNTLYLQMNSLRAEDTAVYYCAKWVMLRGRFDYWGQGTLVTVSS
Consider B2, for which the binding result in [2] is “no binding”; in experiment [3] it was “binds”; in experiment [4], “binds”.

B3: DOM26m-33 carrying the point mutation S116C, DOTA-Maleimide conjugated and 111In labelled (other)
VH: EVQLLESGGGLVQPGGSLRLSCAASGFTFAKYDMIWVRQAPGKGLEWVSGINHSGSRTYYADSVKGRFTISRDNSKNMLYLQMNSLRAEDTAVYYCAKSGSSFDYWGQGTLVTVSC
modifications: DOTA-Maleimide on the C-terminal cysteine (S116C), labelled with 111In
With B3, in experiment [5], the “counts in the liver (percent injected dose) 3 hours after intravenous injection of 111In labelled dAb in balb/c mice, against VH dummy 2” value came out at 4.9 fold and the “counts in the liver (percent injected dose) 3 hours after intravenous injection of 111In labelled dAb in balb/c mice, against Vκ dummy” value came to 12.4 fold.

B4: DOM26m-50 (other, not shown: small tags and cut ends)
VL: DIQMTQSPSSLSASVGDRVTITCRASISIYEHLNWYQQKPGKAPTLLIWDSSGLQSGVPSRFSGSGSGTDFTLTISSLQPEDFATYYCVQHHSHPPTFGQGTKVEIKR
notes: as for B1
On to B4, for which the binding result in [1] is recorded as “binds”.

B5: DOM26m-58 (other, not shown: small tags and cut ends)
VL: DIQMTQSPSSLSASVGDRVTITCRASQPIRNALTWYQQKPGKAPKLLIYRTSHLQSGVPSRFSGSGSGTDFTLTISSLQPEDFATYYCQQTWTMPLTFGQGTKVEIKR
notes: as for B1
Take B5: in experiment [1], the binding result is “binds”.

B6: DOM26m-20 (other, not shown: small tags and cut ends)
VL: DIQMTQSPSSLSASVGDRVTITCRASKYIGSDLYWYQQKPGKAPKLLIGGGSRLQSGVSSRFSGSGSGTDFTLTISSLQPEDFATYYCGQKWARPLTFGQGTKVEIKR
notes: human Vκ domain antibody (dAb) selected on mouse ASGPR H1; also called Vκ dAb DOM26m-20
With B6, the binding result was “binds” in experiment [6] and “no binding (tested: 2.5 µM)” in [7].

B7: DOM26h-220-1 (other, not shown: small tags and cut ends)
VH: EVQLLESGGGLVQPGGSLRLSCAASGFTFEDYGMGWVRQAPGKGLEWVSAIGRNGSQTYYADSVKGRFTISRDNSKNTLYLQMNSLRAEDTAVYYCAKLRRGRGLNTFTLDYWGQGTLVTVSS
For B7, the binding result is recorded as “no binding” in [2], “binds” in experiment [3] and “binds” in [4].

B8: DOM26m-7 (other, not shown: small tags and cut ends)
VH: EVQLLESGGGLVQPGGSLRLSCAASGFTFDDYEMGWVRQAPGKGLEWVSLISAQGRVTYYADSVKGRFTISRDNSKNTLYLQMNSLRAEDTAVYYCAKNSPSYLLNFDYWGQGTLVTVSS
notes: human VH domain antibody (dAb) selected on mouse ASGPR H1
Consider B8, for which the binding result in experiment [1] is “binds”.

B9: DOM26m-29 (other, not shown: small tags and cut ends)
VH: EVQLLESGGGLVQPGGSLRLSCAASGFTFEDSGMIWARQAPGKGLEWVSGIASEGSTTYYADSVKGRFTISRDNSKNTLYLQMNSLRAEDTAVYYCAKSGLSFDYWGQGTLVTVSS
notes: as for B8
Take B9: the binding result in experiment [1] is “binds”.

B10: DOM26h-161-84 (other, not shown: small tags and cut ends)
VL: DIQMTQSPSSLSASVGDRVTITCRASQAIGRWLLWYQQKPGKAPKLLIGPGSRLRSGVPSRFSGSGSGTDFTLTISSLQPEDFVTYYCQQAYAWPPTFGQGTKVEIKR
With B10, the “counts in the liver (percentage of injected dose) 3 hours after injection of DOTA-NHS conjugated, 111In labelled dAb in balb/c mice, against Vκ dummy” value in experiment [5] turned out to be 46 fold. For the same molecule, the binding result in experiment [2] is on record as “no binding”; in [3], “binds”.

B11: DOM26h-61 (other, not shown: small tags and cut ends)
VH: EVQLLESGGGLVQPGGSLRLSCAASGFTFSTYPMHWARQAPGKGLEWVSSISPSGDSTYYADSVKGRFTISRDNSKNTLYLQMNSLRAEDTAVYYCAKNALRFDYWGQGTLVTVSS
notes: human VH domain antibody (dAb); also called VH dAb DOM26h-61
For the molecule B11, the binding result is listed as “binds” in experiment [8] and “no binding (tested: 2.5 µM)” in [7].

B12: DOM26h-196-61 (other, not shown: small tags and cut ends)
VH: EVQLLESGGGLVQPGGSLRLSCAASGFTFEKYAMAWVRQAPGKGLEWVSRISARGVTTYYADSVKGRFTISRDNSKNTLYLQMNSLRAEDTAVYYCAKHKRHEHTRFDSWGQGTLVTVSS
B12: in experiment [5], the “counts in the liver (percentage of injected dose) 3 hours after injection of DOTA-NHS conjugated, 111In labelled dAb in balb/c mice, against VH dummy 2” value was ~35 fold. In addition, the results for the binding result in [9], in experiment [2] and in [10] were “binds”, “no binding (tested: 60 nM)” and “binds”, respectively.

B13: DOM26h-196 (other, not shown: small tags and cut ends)
VH: B12 VH with A53M, R54A, V56M, R101K, H102S, E103A
notes: human VH domain antibody (dAb)
Take B13: in experiment [9], the binding result is reported as “binds”.
